According to US20240182575A1:

What was measured:
[1] = target: HuCTLA4-HuIgG1 (fusion protein of the extracellular part of human CD152 and human Fc gamma 1, CTLA4-Ig) (human) (UniProt P16410); test: alphascreen, CTLA4-Fc; blocked ligand biotinylated CD80-Fc
[2] = target: human CTLA4 (Y201 mutated to valine) on stably transfected CHO-K1 cells (human) (UniProt P16410); test: FACS competition, human CTLA4 CHO cells; blocked ligand HuB7.1/Fc
[3] = target: rhB7-H2-Fc (fusion protein of the extracellular part of human B7-H2 (ICOSL) and mouse Fc gamma 1, R&D Systems Cat #165-B7) (human; mouse) (UniProt O75144); test: competition ELISA, coated B7-H2; competes with ICOS-biotin
Sequence of rhB7-H2-Fc (fusion protein of the extracellular part of human B7-H2 (ICOSL) and mouse Fc gamma 1, R&D Systems Cat #165-B7) (human; mouse) (O75144 other isoform, or with tags, fused parts or gaps limits assumed): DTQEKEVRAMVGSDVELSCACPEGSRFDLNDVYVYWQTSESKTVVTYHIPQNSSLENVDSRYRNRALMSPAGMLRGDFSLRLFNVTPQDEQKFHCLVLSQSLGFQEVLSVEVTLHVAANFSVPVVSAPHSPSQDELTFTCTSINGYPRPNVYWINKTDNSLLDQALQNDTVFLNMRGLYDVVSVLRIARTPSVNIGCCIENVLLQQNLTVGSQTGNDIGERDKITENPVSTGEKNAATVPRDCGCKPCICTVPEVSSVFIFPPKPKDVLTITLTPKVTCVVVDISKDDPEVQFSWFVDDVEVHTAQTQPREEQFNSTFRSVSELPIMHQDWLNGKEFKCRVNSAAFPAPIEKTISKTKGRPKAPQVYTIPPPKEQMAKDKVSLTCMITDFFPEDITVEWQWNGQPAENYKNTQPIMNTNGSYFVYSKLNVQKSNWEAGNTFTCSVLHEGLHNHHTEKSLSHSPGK

Sequence of HuCTLA4-HuIgG1 (fusion protein of the extracellular part of human CD152 and human Fc gamma 1, CTLA4-Ig) (human) (P16410 36-161 limits assumed): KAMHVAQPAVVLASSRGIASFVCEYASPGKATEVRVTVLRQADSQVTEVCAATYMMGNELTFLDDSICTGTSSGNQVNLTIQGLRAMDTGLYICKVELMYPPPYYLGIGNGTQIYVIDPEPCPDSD
Sequence of human CTLA4 (Y201 mutated to valine) on stably transfected CHO-K1 cells (human) (P16410 other isoform, or with tags, fused parts or gaps, change not shown): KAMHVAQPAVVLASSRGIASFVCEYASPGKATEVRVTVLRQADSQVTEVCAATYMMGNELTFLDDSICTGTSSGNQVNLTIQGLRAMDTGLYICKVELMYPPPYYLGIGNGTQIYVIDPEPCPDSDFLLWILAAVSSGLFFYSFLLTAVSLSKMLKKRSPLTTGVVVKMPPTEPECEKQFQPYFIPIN
Sequence of cold ICOS (receptor) (Q9Y6W8 21-140): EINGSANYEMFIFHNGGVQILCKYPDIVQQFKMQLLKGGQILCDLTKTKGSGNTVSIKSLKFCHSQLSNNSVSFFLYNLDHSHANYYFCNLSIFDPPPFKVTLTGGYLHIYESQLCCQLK

IC50 (read off the curve) [1]	IC50 (read off the curve) [2]	IC50 (read off the curve) [3]	Substance
2 nM			BNI3 fab
0.3 nM	10 nM		Mouse-anti-human CTLA4 clone BNI3 (antibody)
		20 nM	cold ICOS (receptor)
